The values below come from publication PMC12575793.

The series concerns the target T1, C-reactive protein (CRP) (UniProt P02741 19-224).
T1 sequence: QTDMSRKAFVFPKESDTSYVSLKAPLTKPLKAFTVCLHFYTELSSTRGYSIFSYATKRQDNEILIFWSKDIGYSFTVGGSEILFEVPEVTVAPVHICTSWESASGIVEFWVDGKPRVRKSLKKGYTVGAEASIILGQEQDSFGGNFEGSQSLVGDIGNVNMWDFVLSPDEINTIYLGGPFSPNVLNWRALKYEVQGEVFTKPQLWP
Briefly: fluorescence recovery from graphene oxide.

B1: FAM-labeled CRP aptamer (ssDNA)
DNA: GGCAGGAAGACAAACATATAATTGAGATCGTTTGATGACTTTGTAAGAGTGTGGAATGGTCTGTGGTGCTGT
Take B1: the binding result was “binds”.
